± gives the uncertainty stated by the source.

To fix the notation:
B1: Zinc finger homeobox protein 3, residues 2643 to 2698; numbered along this chain, Q15911 (parent)
chain: RLRTTITPEQLEILYQKYLLDSNPTRKMLDHIAHEVGLKKRVVQVWFQNTRARERK

In this series the parent is B1. Description: abundance fitness (aPCA) (normalised: wild type 0, dead -1); higher = more abundant; growth selection in yeast, the domain comes from the species named. Conditions: Homo sapiens.
Consider RLRTTITPEQLEILYQKYLLDSNPTRKMLDHIAHEVGLKKRDVQVWFQNTRARERK [V42D], for which the abundance fitness amounted to 0.226 ± 0.13.

RLRTTITPEQLEILYQKYLLDSNPTRKMLDHIAHEVGLKKRWVQVWFQNTRARERK [V42W]: the abundance fitness was -0.048 ± 0.1. Under RLRTTITPEQLEILYQKYLLDSNPTRKMLDHIAHEVGLKKGVVQVWFQNTRARERK [R41G] stands 0.353 ± 0.079; under RLRTTITPEQLEILYQKYLLDSNPTRKMLDHIAHEVGLKKFVVQVWFQNTRARERK [R41F], -0.203 ± 0.2; under RLRTTITPEQLEILYQKYLLDSNPTRKMLDHIAHEVGLKKIVVQVWFQNTRARERK [R41I], 0.544 ± 0.18. Under RLRTTITPEQLEILYQKYLLDSNPTRKMLDHIAHEVGLKKQVVQVWFQNTRARERK [R41Q] stands 0.287 ± 0.15; under RLRTTITPEQLEILYQKYLLDSNPTRKMLDHIAHEVGLKKLVVQVWFQNTRARERK [R41L], -0.001 ± 0.1. Under RLRTTITPEQLEILYQKYLLDSNPTRKMLDHIAHEVGLKKYVVQVWFQNTRARERK [R41Y] stands -0.129 ± 0.24; under RLRTTITPEQLEILYQKYLLDSNPTRKMLDHIAHEVGLKKNVVQVWFQNTRARERK [R41N], 0.2 ± 0.36. Consider RLRTTITPEQLEILYQKYLLDSNPTRKMLDHIAHEVGLKKEVVQVWFQNTRARERK [R41E], for which the abundance fitness stood at 0.475 ± 0.12. Under RLRTTITPEQLEILYQKYLLDSNPTRKMLDHIAHEVGLKKDVVQVWFQNTRARERK [R41D] stands 0.773 ± 0.18. Under RLRTTITPEQLEILYQKYLLDSNPTRKMLDHIAHEVGLKKTVVQVWFQNTRARERK [R41T] stands 0.514 ± 0.15; under RLRTTITPEQLEILYQKYLLDSNPTRKMLDHIAHEVGLKKMVVQVWFQNTRARERK [R41M], -0.078 ± 0.18; under RLRTTITPEQLEILYQKYLLDSNPTRKMLDHIAHEVGLKKAVVQVWFQNTRARERK [R41A], 0.159 ± 0.11. Under RLRTTITPEQLEILYQKYLLDSNPTRKMLDHIAHEVGLKKSVVQVWFQNTRARERK [R41S] stands 0.411 ± 0.1; under RLRTTITPEQLEILYQKYLLDSNPTRKMLDHIAHEVGLKKCVVQVWFQNTRARERK [R41C], 0.256 ± 0.12. Take RLRTTITPEQLEILYQKYLLDSNPTRKMLDHIAHEVGLKKVVVQVWFQNTRARERK [R41V]: the abundance fitness stood at 0.041 ± 0.093. In the case of RLRTTITPEQLEILYQKYLLDSNPTRKMLDHIAHEVGLKKKVVQVWFQNTRARERK [R41K], the abundance fitness worked out at 0.297 ± 0.18. Under RLRTTITPEQLEILYQKYLLDSNPTRKMLDHIAHEVGLKKHVVQVWFQNTRARERK [R41H] stands 0.031 ± 0.19. Under RLRTTITPEQLEILYQKYLLDSNPTRKMLDHIAHEVGLKKPVVQVWFQNTRARERK [R41P] stands -0.144 ± 0.23; under RLRTTITPEQLEILYQKYLLDSNPTRKMLDHIAHEVGLKKWVVQVWFQNTRARERK [R41W], 0.055 ± 0.12; under RLRTTITPEQLEILYQKYLLDSNPTRKMLDHIAHEVGLKSRVVQVWFQNTRARERK [K40S], 0.237 ± 0.092.

With RLRTTITPEQLEILYQKYLLDSNPTRKMLDHIAHEVGLKGRVVQVWFQNTRARERK [K40G], the abundance fitness worked out at 0.04 ± 0.079. Under RLRTTITPEQLEILYQKYLLDSNPTRKMLDHIAHEVGLKLRVVQVWFQNTRARERK [K40L] stands 0.283 ± 0.09; under RLRTTITPEQLEILYQKYLLDSNPTRKMLDHIAHEVGLKPRVVQVWFQNTRARERK [K40P], 0.258 ± 0.1. Under RLRTTITPEQLEILYQKYLLDSNPTRKMLDHIAHEVGLKTRVVQVWFQNTRARERK [K40T] stands 0.355 ± 0.1; under RLRTTITPEQLEILYQKYLLDSNPTRKMLDHIAHEVGLKCRVVQVWFQNTRARERK [K40C], -0.195 ± 0.14. Consider RLRTTITPEQLEILYQKYLLDSNPTRKMLDHIAHEVGLKYRVVQVWFQNTRARERK [K40Y], for which the abundance fitness worked out at 0.16 ± 0.18. Under RLRTTITPEQLEILYQKYLLDSNPTRKMLDHIAHEVGLKNRVVQVWFQNTRARERK [K40N] stands 0.238 ± 0.17. Under RLRTTITPEQLEILYQKYLLDSNPTRKMLDHIAHEVGLKDRVVQVWFQNTRARERK [K40D] stands 0.006 ± 0.16. In the case of RLRTTITPEQLEILYQKYLLDSNPTRKMLDHIAHEVGLKWRVVQVWFQNTRARERK [K40W], the abundance fitness was determined as 0.212 ± 0.11. Under RLRTTITPEQLEILYQKYLLDSNPTRKMLDHIAHEVGLKMRVVQVWFQNTRARERK [K40M] stands 0.192 ± 0.12; under RLRTTITPEQLEILYQKYLLDSNPTRKMLDHIAHEVGLKIRVVQVWFQNTRARERK [K40I], 0.093 ± 0.17; under RLRTTITPEQLEILYQKYLLDSNPTRKMLDHIAHEVGLKVRVVQVWFQNTRARERK [K40V], 0.161 ± 0.079. Under RLRTTITPEQLEILYQKYLLDSNPTRKMLDHIAHEVGLKARVVQVWFQNTRARERK [K40A] stands 0.144 ± 0.08; under RLRTTITPEQLEILYQKYLLDSNPTRKMLDHIAHEVGLKRRVVQVWFQNTRARERK [K40R], -0.064 ± 0.082. Turning to RLRTTITPEQLEILYQKYLLDSNPTRKMLDHIAHEVGLKHRVVQVWFQNTRARERK [K40H], the abundance fitness was -0.049 ± 0.16.

RLRTTITPEQLEILYQKYLLDSNPTRKMLDHIAHEVGVKKRVVQVWFQNTRARERK [L38V]: the abundance fitness is -0.163 ± 0.078. Under RLRTTITPEQLEILYQKYLLDSNPTRKMLDHIAHEVGSKKRVVQVWFQNTRARERK [L38S] stands -0.601 ± 0.099; under RLRTTITPEQLEILYQKYLLDSNPTRKMLDHIAHEVGQKKRVVQVWFQNTRARERK [L38Q], -0.734 ± 0.16. Under RLRTTITPEQLEILYQKYLLDSNPTRKMLDHIAHEVGNKKRVVQVWFQNTRARERK [L38N] stands -1.02 ± 0.24; under RLRTTITPEQLEILYQKYLLDSNPTRKMLDHIAHEVGMKKRVVQVWFQNTRARERK [L38M], -0.009 ± 0.13; under RLRTTITPEQLEILYQKYLLDSNPTRKMLDHIAHEVGKKKRVVQVWFQNTRARERK [L38K], -0.712 ± 0.17. Under RLRTTITPEQLEILYQKYLLDSNPTRKMLDHIAHEVGWKKRVVQVWFQNTRARERK [L38W] stands -0.746 ± 0.11. Regarding RLRTTITPEQLEILYQKYLLDSNPTRKMLDHIAHEVGTKKRVVQVWFQNTRARERK [L38T], the abundance fitness was -0.616 ± 0.13. RLRTTITPEQLEILYQKYLLDSNPTRKMLDHIAHEVGRKKRVVQVWFQNTRARERK [L38R]: the abundance fitness was -0.846 ± 0.086. Under RLRTTITPEQLEILYQKYLLDSNPTRKMLDHIAHEVGYKKRVVQVWFQNTRARERK [L38Y] stands -1 ± 0.41.

The record behind these values is the Human Domainome abundance scans (Beltran et al. 2025).
